# In US20200397860A1, “SLIT AND BONE GROWTH MODULATION” (Cornell University, priority 2018, published 2020):
# Entries after “also recorded” stand apart in the source; their conditions may differ.
# How the values were obtained:
# [1] = tested on: bone marrow-derived endothelial cells; test: Flow cytometry of CD31hiEMCNhi endothelial cells in EPOC cultures; assay type: cell-based, mouse; details: cultures of EPOCs
# Protocol: Femur and tibia were dissected from mutant mice and control groups after removing surrounding connective tissues. The metaphysis region and diaphysis regions of bone was crushed in Hanks Balanced Salt Solution (Life Technologies) containing 10 mM HOPES (pH 7.2) (CellGro) and enzymatically digested with 2.5 mg/mL Collagenase A (Roche) and 1 unit/mL Dispase II (Roche) for 15 minutes at 37° C. under gentle agitation. The resulting cell suspensions were filtered (40 μm), washed using PBS (pH 7.2) containing 0.5% BSA (Fraction V) and 2 mM EDTA. […] After washing, cells were resuspended in PBS (pH 7.2) with 2 mM EDTA and 1 μg/mL 4-6,Diamidino-2-Phenylindole (DAPI) (live/dead exclusion) for analysis on an LSRII flow cytometer system (BD Biosciences) cytometer and analyzed using FlowJo software (TreeStar). […]
# Mouse bone marrow derived late-stage endothelial progenitor outgrowth cells (EPOCs) were obtained from BioChain (7030031) and cultured in growth medium (BioChain Z7030035) as described previously (Xie et al. 2014). […] The cell numbers were quantified by counting a centered microscope field per each filter (5 wells for each condition). […] The width of the wound area was quantitatively evaluated using ImageJ (see website at rsb.info.uih.gov/ij/download.html). […]
# [2] = tested on: open femoral midshaft fracture; test: Open femoral midshaft fracture model, systemic IV SLIT3; assay type: in vivo, mouse
# Protocol: Micro-CT (μCT) analysis was conducted on a Scanco Medical μCT 35 system at the Citigroup Biomedical Imaging Core using the previously described parameters. (Shim et al. 2013). μCT analysis was performed by an investigator blinded to the genotypes of the animals under analysis.
# For histological analysis, hindlimbs were dissected from the mice or human callus, fixed in 10% neutral buffered formalin for 24-48 hours, and decalcified by daily changes of 15% tetrasodium EDTA for 2 weeks. Tissues were dehydrated by passage through an ethanol series, cleared twice in xylene, embedded in paraffin, and sectioned at 7 μm thickness. Decalcified sections were stained with hematoxylin and eosin (H&E). We incubated the slides with primary antibody to mouse EMCN (sc-65495, Santa Cruz, 1:200) and human Slit3 (ab198726, Abcam 1:50) at 37° C. for 2 h and subsequently used a horseradish peroxidase-streptavidin detection system (Dako) to detect the immunoreactivity. The number and volume of positively stained vessels was measured in four random visual fields of callus in 3 sequential sections per mouse in each group.
# All surgical procedures were performed under isoflurane (1-4%) anesthesia via nosecone. Surgical sites were sterilized using a betadine/iodide/isopropanol prep after hair removal by a clipper with a #40 blade and depilatory cream (Nair). After surgery, the visceral lining or muscle was sutured with absorbable Ethicon vicryl sutures (VWR, Cat #95057-014) prior to closing the skin with wound clips that were then removed 2 weeks post-operatively. Animals received intraperitoneal Buprenex (0.5 mg/kg) and oral Meloxicam (2.0 mg/kg) as analgesia prior to surgery and once every 24 hours post-surgery for 3 days. All surgical procedures are approved by the IACUC of Weill Cornell Medical College (Protocol #2012-0005).
# Bone fracture was done following previously described protocols with modifications (Bradaschia-Correa et al. 2017). In brief, after anesthesia and surgical site sterilization, an incision above the right anterolateral femur was made. The femur and patella were then exposed, and a 27-gauge syringe needle was inserted parallel with the long axis of the femur through the patellar groove into the marrow cavity. The needle was then removed, and a single cut was made in the middle of the femoral diaphysis using a dremel saw with a diamond thin cutting wheel (VWR, Cat #100230-724). A blunt 25-gauge needle was then inserted into the marrow space through the hole made in the patella to stabilize the fracture. The needle was then trimmed to avoid it from projecting into the patella-femoral joint space. Muscle was then placed over the osteotomy site and stitched with absorbable sutures prior to closing the skin with wound clips.
# Alternatively, the gelatin sponge was manually soaked with SLITS (300 ug/ml in PBS) or vehicle for 1 hour on ice and immediately placed to the surgical fracture area. All animals were euthanized by CO2 at time points indicated.
# All bones were tested to failure using four-point bending on a precision electromagnetic-based load frame (EnduraTEC ELF 3200, Bose Corporation, Minnetonka, MC). Femurs were placed with the posterior surface on the lower supports, spaced 9.9 mm apart. The upper supports were spaced 3.3 ram. Load was applied at a rate of 0.1 mm/s until failure occurred. The failure load (N) and bending stiffness […] within the elastic range were calculated from the force-displacement curves and the four-point dimensions.
# [3] = tested on: bone marrow endothelial progenitor outgrowth cells (EPOCs); test: Endothelial cell wound healing (migration) assay; assay type: cell-based, mouse
# Protocol: Mouse bone marrow derived late-stage endothelial progenitor outgrowth cells (EPOCs) were obtained from BioChain (7030031) and cultured in growth medium (BioChain Z7030035) as described previously (Xie et al. 2014). Endothelial cell migration assay was set up in Trans well-24 well plates with 8-um pore filters. Briefly, 1×10^5 cells/well after 1-hour serum starvation were seeded in the upper chamber, then incubated with conditioned medium from osteoblasts and control in the lower chambers for a further 3 h. The cells in the upper surface of each filter were removed with cotton swabs. The cells that migrated into the lower surface were fixed with 4% PFA for 30 min and then stained with crystal violet. The cell numbers were quantified by counting a centered microscope field per each filter (5 wells for each condition). […] The width of the wound area was quantitatively evaluated using ImageJ (see website at rsb.info.uih.gov/ij/download.html). […] At 0, 24, 48 hours after seeding, cells were incubated with 10-fold diluted Alamar Blue solution (Thermo Fisher) and the supernatant was evaluated with a spectrophotometer (Thermo) (5 wells for each condition). […] Alter 5 hours incubation at 37° C., the number of tube branches each well was observed and quantified by counting four random fields per well with microscopy (5 wells for each condition).
# non-skeletal vasculature = details: mouse, in vivo, iv
# [4] = IV twice weekly, 21 days after fracture
# [5] = biomechanical testing, 21 days after fracture
molecule,measurement,setting,value
"SLIT3: SLIT3 recombinant protein (R&D); secreted ligand of ROBO receptors (protein, UniProt O75094 34-1523, looked up) Slit homolog 3 protein: CPTKCTCSAASVDCHGLGLRAVPRGIPRNAERLDLDRNNITRITKMDFAGLKNLRVLHLEDNQVSVIERGAFQDLKQLERLRLNKNKLQVLPELLFQSTPKLTRLDLSENQIQGIPRKAFRGITDVKNLQLDNNHISCIEDGAFRALRDLEILTLNNNNISRILVTSFNHMPKIRTLRLHSNHLYCDCHLAWLSDWLRQRRTVGQFTLCMAPVHLRGFNVADVQKKEYVCPAPHSEPPSCNANSISCPSPCTCSNNIVDCRGKGLMEIPANLPEGIVEIRLEQNSIKAIPAGAFTQYKKLKRIDISKNQISDIAPDAFQGLKSLTSLVLYGNKITEIVKGLFDGLVSLQLLLLNANKINCLRVNTFQDLQNLNLLSLYDNKLQTISKGLFAPLQSIQTLHLAQNPFVCDCHLKWLADYLQDNPIETSGARCSSPRRLANKRISQIKSKKFRCSGSEDYRSRFSSECFMDLVCPEKCRCEGTIVDCSNQKLVRIPSHLPEYVTDLRLNDNEVSVLEATGIFKKLPNLRKINLSNNKIKEVREGAFDGAASVQELMLTGNQLETVHGRVFRGLSGLKTLMLRSNLIGCVSNDTFAGLSSVRLLSLYDNRITTITPGAFTTLVSLSTINLLSNPFNCNCHLAWLGKWLRKRRIVSGNPRCQKPFFLKEIPIQDVAIQDFTCDGNEESSCQLSPRCPEQCTCMETVVRCSNKGLRALPRGMPKDVTELYLEGNHLTAVPRELSALRHLTLIDLSNNSISMLTNYTFSNMSHLSTLILSYNRLRCIPVHAFNGLRSLRVLTLHGNDISSVPEGSFNDLTSLSHLALGTNPLHCDCSLRWLSEWVKAGYKEPGIARCSSPEPMADRLLLTTPTHRFQCKGPVDINIVAKCNACLSSPCKNNGTCTQDPVELYRCACPYSYKGKDCTVPINTCIQNPCQHGGTCHLSDSHKDGFSCSCPLGFEGQRCEINPDDCEDNDCENNATCVDGINNYVCICPPNYTGELCDEVIDHCVPELNLCQHEAKCIPLDKGFSCECVPGYSGKLCETDNDDCVAHKCRHGAQCVDTINGYTCTCPQGFSGPFCEHPPPMVLLQTSPCDQYECQNGAQCIVVQQEPTCRCPPGFAGPRCEKLITVNFVGKDSYVELASAKVRPQANISLQVATDKDNGILLYKGDNDPLALELYQGHVRLVYDSLSSPPTTVYSVETVNDGQFHSVELVTLNQTLNLVVDKGTPKSLGKLQKQPAVGINSPLYLGGIPTSTGLSALRQGTDRPLGGFHGCIHEVRINNELQDFKALPPQSLGVSPGCKSCTVCKHGLCRSVEKDSVVCECRPGWTGPLCDQEARDPCLGHRCHHGKCVATGTSYMCKCAEGYGGDLCDNKNDSANACSAFKCHHGQCHISDQGEPYCLCQPGFSGEHCQQENPCLGQVVREVIRRQKGYASCATASKVPIMECRGGCGPQCCQPTRSKRRKYVFQCTDGSSFVEEVERHLECGCLACS",acquisition of CD31hiEMCNhi surface immunophenotype in culture,[1],enhanced the acquisition; also recorded: induces production
same,bone fracture healing (μCT and histological analysis),"[2]; 5-week-old male mice, IV twice weekly, 21 days",enhancement of bone fracture healing; also recorded: enhances bone-fracture healing
same,bone volume in the callus area relative to controls,[2]; [4],~2 fold
same,vascularization of fracture area including CD31hiEMCNhi endothelium,[2]; [4],increased
same,maximum load sustained by the fracture callus,[2]; [5],significantly enhanced
same,stiffness of the fracture callus,[2]; [5],significantly enhanced
same,migration,[3],enhanced migration
same,brain ultrastructure,non-skeletal vasculature,no changes
